# Laboratory results reported in patent US20200199244A1 (published 2020).
# Changes are numbered by the printed parent chain. Names may count otherwise.
# T1: Macaca fascicularis CD40 (Macaca fascicularis (cynomolgus monkey), UniProt P25942 21-277 (human entry))
# T1 chain: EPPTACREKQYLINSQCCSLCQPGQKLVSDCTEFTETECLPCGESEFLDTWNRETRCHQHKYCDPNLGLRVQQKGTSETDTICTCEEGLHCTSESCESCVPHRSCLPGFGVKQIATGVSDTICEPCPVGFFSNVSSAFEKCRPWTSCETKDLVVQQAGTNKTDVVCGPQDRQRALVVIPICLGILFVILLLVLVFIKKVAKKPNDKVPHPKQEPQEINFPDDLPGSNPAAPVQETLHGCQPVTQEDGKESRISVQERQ
# B1: BMS3h-198-1 (other)
# VH: EVQLLESGGGLVQPGGSLRLSCAASGSTIAGYEMWWVRQAPGKGLERVSAISGSGGSTYYADSVKGRFTISRDDSKNTLYLQMNSLRAEDTAVYYCARDPYSFDYWGQGTLVTVSS
# notes: dAb, single VH
# B2: DMS0682 BMS3h-56-258-TVA-DOM7h-11-90 (bispecific antibody)
# chain: EVQLLESGGGLVQPGGSLRLSCAASGFTFRDYEMWWVRQAPGKGLERVSAINPQGTRTYYADSVKGRFTISRDNSKNTLYLQMNSLRAEDTAVYYCAKLPFYFHEWGQGTLVTVSSTVADIQMTQSPSSLSASVGDRVTITCRASRPIGTMLSWYQQKPGKAPKLLILAFSRLQSGVPSRFSGSGSGTDFTLTISNLQPEDFATYYCAQAGTHPTTFGQGTKVEIKR
# B3: DMS0686 BMS3h-56-258-(G4S)5-DOM7h-11-90 (bispecific antibody)
# chain: EVQLLESGGGLVQPGGSLRLSCAASGFTFRDYEMWWVRQAPGKGLERVSAINPQGTRTYYADSVKGRFTISRDNSKNTLYLQMNSLRAEDTAVYYCAKLPFYFHEWGQGTLVTVSSGGGGSGGGGSGGGGSGGGGSGGGGSDIQMTQSPSSLSASVGDRVTITCRASRPIGTMLSWYQQKPGKAPKLLILAFSRLQSGVPSRFSGSGSGTDFTLTISNLQPEDFATYYCAQAGTHPTTFGQGTKVEIKR
# B4: DMS0685 BMS3h-56-258-(G4S)3-DOM7h-11-90 (bispecific antibody)
# chain: EVQLLESGGGLVQPGGSLRLSCAASGFTFRDYEMWWVRQAPGKGLERVSAINPQGTRTYYADSVKGRFTISRDNSKNTLYLQMNSLRAEDTAVYYCAKLPFYFHEWGQGTLVTVSSGGGGSGGGGSGGGGSDIQMTQSPSSLSASVGDRVTITCRASRPIGTMLSWYQQKPGKAPKLLILAFSRLQSGVPSRFSGSGSGTDFTLTISNLQPEDFATYYCAQAGTHPTTFGQGTKVEIKR
# B5: DMS0681 DOM7h-11-90-(G4S)5-BMS3h-56-258 (bispecific antibody)
# chain: DIQMTQSPSSLSASVGDRVTITCRASRPIGTMLSWYQQKPGKAPKLLILAFSRLQSGVPSRFSGSGSGTDFTLTISNLQPEDFATYYCAQAGTHPTTFGQGTKVEIKRGGGGSGGGGSGGGGSGGGGSGGGGSEVQLLESGGGLVQPGGSLRLSCAASGFTFRDYEMWWVRQAPGKGLERVSAINPQGTRTYYADSVKGRFTISRDNSKNTLYLQMNSLRAEDTAVYYCAKLPFYFHEWGQGTLVTVSS
# B6: DMS0684 BMS3h-56-258-G4S-DOM7h-11-90 (bispecific antibody)
# chain: EVQLLESGGGLVQPGGSLRLSCAASGFTFRDYEMWWVRQAPGKGLERVSAINPQGTRTYYADSVKGRFTISRDNSKNTLYLQMNSLRAEDTAVYYCAKLPFYFHEWGQGTLVTVSSGGGGSDIQMTQSPSSLSASVGDRVTITCRASRPIGTMLSWYQQKPGKAPKLLILAFSRLQSGVPSRFSGSGSGTDFTLTISNLQPEDFATYYCAQAGTHPTTFGQGTKVEIKR
# B7: DMS0683 BMS3h-56-258-ASTSGPS-DOM7h-11-90 (bispecific antibody)
# chain: EVQLLESGGGLVQPGGSLRLSCAASGFTFRDYEMWWVRQAPGKGLERVSAINPQGTRTYYADSVKGRFTISRDNSKNTLYLQMNSLRAEDTAVYYCAKLPFYFHEWGQGTLVTVSSASTSGPSDIQMTQSPSSLSASVGDRVTITCRASRPIGTMLSWYQQKPGKAPKLLILAFSRLQSGVPSRFSGSGSGTDFTLTISNLQPEDFATYYCAQAGTHPTTFGQGTKVEIKR
# B8: BMS3h-43-5 (other)
# VH: EVQLLESGGGLVQPGGSLRLSCTASGFTFNTYEMSWVRQAPGKGLEWVSGIGRRGFTTYYADSVKGRFTISRDNSKNTLYLQMNSLRAEDTAVYYCAKEPITYDLRYARFDYSGQGTLVTVSS
# notes: dAb, single VH
# B9: BMS3h-43-3 (other)
# VH: B8 VH with T31M, G52S, S75F, L105M, S113G
# notes: dAb, single VH
# B10: BMS3h-202-10 (other)
# VH: EVQLLESGGGLVQPGGSLRLSCAASGFTFPTAEMLWVRQAPGKGLEWVSSISASGGSTYYADSVKGRFTISRDNSKNTLYLQMNSLRAEDTAVYYCAKEPVYYVATFDYWGQGTLVTVSS
# notes: dAb, single VH
# B11: BMS3h-202-11 (other)
# VH: B10 VH with Q39K, T91A, Y102S
# notes: dAb, single VH
# B12: BMS3h-37-2 (other)
# VH: EVQLLESGGGLVQPGGSLRLSCAASGFTFEWYEMQWVRRAPGKGLEWVSAISGDGYRTYYADSVKGRFTISRDNSKNTLYLQMNSLRAEDTAVYYCAKELGYFDYWGRGTLVTVSS
# notes: dAb, single VH
# B13: BMS3h-38-8 (other)
# VH: EVQLLESGGGLVQPGGSLRLSCAASGFTFEEEEMIWVRQAPGKGLEWISAISGSGGSTYYADSVKGRFTIHRDNSKNTLYLQMNSLRAEDTAVYYCSKEPFRFDYRGLGTLVTVSS
# notes: dAb, single VH
# B14: BMS3h-198-2 (other)
# VH: B1 VH with L4P, S27F, I29F, V48I
# notes: dAb, single VH
# B15: BMS3h-38-5 (other)
# VH: B13 VH with E6G, I48V, H71S, S97G, R106W, L108Q
# notes: dAb, single VH
# B16: BMS3h-41-3 (other)
# VH: EVQLLEPGGGLVQPGGSLRLSCAASGFTFTEYEMIWVRKAPGKGMEWVSSISGNGANTYYADSVKGRFTISRDNSKNMLYLQMNSLRAEDTAVYYCAKEPLRFGYWGQGTLVTVSS
# notes: dAb, single VH
# B17: BMS3h-37-11 (other)
# VH: B12 VH with R39K, W106R
# notes: dAb, single VH
# B18: BMS3h-41-10 (other)
# VH: B16 VH with P7S, G9V, M45L, M78T, G104D, Y105N
# notes: dAb, single VH
# B19: BMS3h-37-4 (other)
# VH: B12 VH with R39K
# notes: dAb, single VH
# B20: BMS3h-198-3 (other)
# VH: B1 VH with L11S, S25T, I29F, F103Y, T113S
# notes: dAb, single VH
# B21: BMS3h-193-15 (other)
# VL: DIQMTQSPSSLSASVGDRVTITCRASRTIERRLNWYQQKPGKAPKLLIYLASRLQSGVPSRFSGSGSGTDFTLTISSLQPEDFATYYCHPYESPPLTFGQGTKVEIKR
# notes: dAb, single VK
# B22: BMS3h-131 (other)
# VL: DIQMTQSPSSLSASVGDRVTITCRANSSILWALAWYQQKPGKAPKLLIESSSGLQSGVPSRFSGSGSGTDFTLTISSLQPEDFATYYCVQNAGWPGTFGQGTKVEIKR
# B23: BMS3h-131-2 (other)
# VL: B22 VL with N26D, G93V
# B24: BMS3h-43 (other)
# VH: B8 VH with T31M, G52S, D104A, L105M, S113W
# B25: BMS3h-41-3 (other)
# VH: B16 VH
# B26: BMS3h-107 (other)
# VH: EVQLLESGGGLVQPGGSLRLSCAASGFTFSGYDMQWVRQAPGKGLEWVSTISASGVFTYYADSVKGRFTTSRDNSKNTLYLQMNSLRAEDTAVYYCAKYPNRFALNNFDYWGQGTLVTVSS
# B27: BMS3h-106 (other)
# VH: EVQLLESGGGLVQPGGSLRLSCAASGFTFSTYHMQWVRQAPGKGLEWVSMIDADGLGTYYADSVKGRFTISRDNSKNTLYLQMNSLRAEDTAVYYCAKPGPQFGQFDYWGQGTLVTVSS
# B28: BMS3h-56 (other)
# VH: EVQLLESGGGLVQPGGSLRLSCAASGFTFRDYEMWWVRQAPGKGLERVSAINPQGTRTYYADSVKGRFTISRDNSKNTLYLQMNSLRAEDTAVYYCAKLPFIFDYWGQGTLVTVSS
# B29: BMS3h-56-5 (other)
# VH: B28 VH with K65M, I102T, Y105D
# Molecular target: T2, human CD40 (BMS, CY24FEB06-01) (human, UniProt P25942 21-193)
# T2 construct: Soluble reagent of the bead and ELISA RBA; It is detected with an anti-human IgG (Fc) mAb, so it may be a CD40-Ig fusion
# Test: ELISA RBA, competition with IZ-CD40L;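 also: Neutravidin-coated 384-well plate, dAb–human CD40 complex bound for 2 h at room temperature, absorbance read at 450 nm after HCl stop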
# Experimental: Clear walled High Bind, 384-well plates (Corning, UK) were coated with 25 μl of 1 μg/ml Neutravidin in 0.2 M carbonate-bicarbonate buffer, pH 9.4 overnight at 4° C. The following day, assay plates were washed with 0.1% (v/v) Tween PBS buffer, blocked with 1% (w/v) BSA in PBS for 1 hour at room temperature and washed again. […] Following washing of the assay plate, the dAb:human CD40 complex was incubated in the assay plate at room temperature for 2 hours with gentle agitation. […] Absorbance signal was measured using a SpectraMax® M5e plate reader (Molecular Devices) at 450 nm following neutralization with 1M HCl solution.
row,EC50,Binder
1,12 nM,B1

# Molecular target: human CD40 (human, UniProt P25942 21-277)
# Test: cell-based or functional assay
"ICAM-1 Cell Assay EC50 (nM), 10% bovine serum","ICAM-1 Cell Assay EC50 (nM), 10% human serum",Binder
10.2 nM,94.8 nM,B2
48.3 nM,66.6 nM,B3
31.9 nM,62.4 nM,B4
43.6 nM,53.3 nM,B5
37.9 nM,74.3 nM,B6
32.4 nM,50.9 nM,B7

# Molecular target: T3, human CD40 expressed on stably transfected CHO-DG44 cells (human, UniProt P25942 21-277)
# T3 construct: also called CHO-CD40
# Test: CHO-CD40 cell RBA, competition with IZ-CD40L
# Experimental: The mixture was incubated in the absence of light for 6 hours.
row,EC50,Binder
1,90 nM,B8
2,320 nM,B9
3,7200 nM,B10
4,8300 nM,B11
5,32 nM,B12
6,2800 nM,B13
7,115 nM,B14
8,1000 nM,B15
9,200 nM,B16
10,27 nM,B17
11,70 nM,B1
12,4300 nM,B18
13,45 nM,B19
14,330 nM,B20
15,300 nM,B21

# Molecular target: T1, Macaca fascicularis CD40
# Test: cell-based or functional assay
row,hIZCD40L-driven Cyno B Cell Proliferation EC50,Binder
1,> 7000 nM,B22
2,> 7000 nM,B23
3,> 7000 nM,B24
4,> 7000 nM,B25
5,> 7000 nM,B26
6,> 7000 nM,B27
7,> 7000 nM,B28
8,> 7000 nM,B29

# Molecular target: human CD40 (human, UniProt P25942 21-277)
# Test: cell-based or functional assay
# Remark: another data set of the same source
row,hIZCD40L-driven Human B Cell Proliferation EC50,Binder
1,2700 nM,B22
2,55 nM,B23
3,83 nM,B24
4,12 nM,B25
5,> 7000 nM,B26
6,437 nM,B27
7,713 nM,B28
8,6 nM,B29
